Target: murine monoclonal antibody 2A4 (ATCC Accession Number PTA-9662)
Test: Competition ELISA; mouse AA (AEF) in solution competing with adsorbed human AA amyloid extract for mAb 2A4

murine monoclonal antibody 2A4 (ATCC Accession Number PTA-9662), sequence (VL, as listed by the source, chain 1 of 2): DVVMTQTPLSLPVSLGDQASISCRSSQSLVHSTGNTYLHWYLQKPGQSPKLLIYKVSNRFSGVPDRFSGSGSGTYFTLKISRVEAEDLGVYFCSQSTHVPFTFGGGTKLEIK
murine monoclonal antibody 2A4 (ATCC Accession Number PTA-9662), sequence (VH, as listed by the source, chain 2 of 2): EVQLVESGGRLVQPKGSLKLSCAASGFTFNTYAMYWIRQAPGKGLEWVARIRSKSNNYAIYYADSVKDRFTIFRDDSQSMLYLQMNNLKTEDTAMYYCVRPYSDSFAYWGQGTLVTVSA
murine AA amyloid (AA fibrils; amyloid enhancing factor extract, AEF), sequence (P05367 20-94): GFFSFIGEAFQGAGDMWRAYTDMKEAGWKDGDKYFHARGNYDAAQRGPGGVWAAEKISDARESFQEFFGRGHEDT

- IC50: 14.7 µg/mL
Substance: murine AA amyloid (AA fibrils; amyloid enhancing factor extract, AEF)

— US20120039878A1
